Measured values reported in paper PMC8084299, “Peculiarities of the Presentation of the Encephalitogenic MBP Peptide by HLA-DR Complexes Providing Protection and Predisposition to Multiple Sclerosis” (Acta Naturae, 2021).

Molecular target: HLA-DR15 (HLA-DRB1*1501) (Homo sapiens, UniProt P01903+P01911)
Assay: Competitive ELISA against biotinylated pp65 (pp65bio) for binding to HLA-DR
Settings: pp65bio 150 nM, HLA-DR15 150 nM, non-biotinylated competitor 7.8 nM - 1 μM, HLA-DM 150 nM, PBS, 37°C, 18 h, triplicate, ± SD, read-out: IC50 in competition with pp65bio for HLA-DR15

IC50: 120 ± 20 nM
Substance: MBP85-97: myelin basic protein peptide 85-97 fused to C-terminus of bacterial thioredoxin through (SGGGG)3S linker with His-tags (PVVHFFKNIVTPR; not fully specified; C-terminal fusion to thioredoxin via (SGGGG)3S linker (left out))
